Our source for the stoichiometry N values is paper PMC10937716.

Common to all, as to assay: cryo-EM structure; purified BAV virions (full and partial particles) in 1x PBS pH 7.4; icosahedral reconstruction and local reconstructions of the fivefold vertex, of RdRp and of VP9
For assay [1], the target named is Banna virus (BAV) strain YN15-126-01 VP8, outer capsid protein (Banna virus strain YN15-126-01).
The target of assay [2] is Banna virus (BAV) strain YN15-126-01 VP4, membrane penetration protein (spike) (Banna virus strain YN15-126-01).
Assay [3] deals with Banna virus (BAV) strain YN15-126-01 VP9, receptor binding protein (spike) (Banna virus strain YN15-126-01).

One may read the stoichiometry N as the number of molecules, sites or subunits per partner or assembly. With “Banna virus (BAV) strain YN15-126-01 VP8, outer capsid protein (natural protein)”, in assay [1], the stoichiometry N was determined as 3.
For “Banna virus (BAV) strain YN15-126-01 VP4, membrane penetration protein (spike) (natural protein)”, the stoichiometry N in assay [2] is 3.
“Banna virus (BAV) strain YN15-126-01 VP9, receptor binding protein (spike) (natural protein)” yielded a stoichiometry N in assay [3] of 3.
